Consider one molecule from paper PMC12007569, “Molecular basis of pyruvate transport and inhibition of the human mitochondrial pyruvate carrier” (Science Advances, 2025).

The assay has as its target T1, human MPC1L/MPC2 heterodimer (Homo sapiens, UniProt P0DKB6;O95563).
T1 construct: MPC1L, human, wild-type cDNA, UniProt P0DKB6; MPC2, human, wild-type cDNA, UniProt O95563; Heterodimer formed beforehand (co-expressed and co-purified) and then mixed with the nanobody or the Pro-macrobody; also called hMPC1L/MPC2; hMPC1L/2 heterodimer; source: S. cerevisiae W303-1B, purified from mitochondria (LMNG, Nickel Sepharose, on-column TEV digestion); not shown: His tag, C-terminal, …
Kind of assay: pull-down; 75 μg hMPC1L/MPC2 incubated at a stoichiometric ratio with each nanobody for 1 hour at 4°C, then Ni-NTA Superflow resin 1 hour at 4°C; washed with buffer B, eluted with 250 mM imidazole; fractions on SDS-PAGE. The conditions noted are these: both partners purified.

T1 sequence (P0DKB6 whole entry, chain 1 of 2): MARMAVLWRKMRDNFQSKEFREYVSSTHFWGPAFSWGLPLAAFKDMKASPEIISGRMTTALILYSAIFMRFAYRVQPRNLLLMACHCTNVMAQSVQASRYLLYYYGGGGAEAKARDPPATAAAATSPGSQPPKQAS
T1 sequence (O95563 whole entry, chain 2 of 2): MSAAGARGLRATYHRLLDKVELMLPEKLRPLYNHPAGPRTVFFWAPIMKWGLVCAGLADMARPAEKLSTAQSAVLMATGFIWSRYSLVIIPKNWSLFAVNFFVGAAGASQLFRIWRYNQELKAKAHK

B1: nanobody CA19425 (VHH)
VHH: QVQLVESGGGLVQAGGSLRLSCAASGRTFSAYGISTYTMGWFRQAPGKEREFVAAIGRDSGFTYYEDSVKGRFTINADNAENTVYLQMNSLKPEDTAVYYCAASSYYGRPNVDLMAYWGKGTQVTVPP
notes: as the nanobody part of m4, held in the PMb chain of the deposited entries (modelled residues 4 to 131); One of six nanobodies (four families); also called MPC2-specific nanobody; source: from a phage display library (pMESy4) of a llama immunised with hMPC1L/MPC2 proteoliposomes
On to B1, for which the binding result is recorded as “binds”.
